This note sets out measurements from patent US20260174875A1 (Novo Nordisk A/S, priority 2023, published 2026).

Assay in all cases: cell-based or functional assay
Experiment [1] has as its target T1, human GLP-1 receptor (human, UniProt P43220 24-463).
The target in experiment [2] is T2, human GIP receptor (human, UniProt P48546 22-466).
T2 sequence (looked up): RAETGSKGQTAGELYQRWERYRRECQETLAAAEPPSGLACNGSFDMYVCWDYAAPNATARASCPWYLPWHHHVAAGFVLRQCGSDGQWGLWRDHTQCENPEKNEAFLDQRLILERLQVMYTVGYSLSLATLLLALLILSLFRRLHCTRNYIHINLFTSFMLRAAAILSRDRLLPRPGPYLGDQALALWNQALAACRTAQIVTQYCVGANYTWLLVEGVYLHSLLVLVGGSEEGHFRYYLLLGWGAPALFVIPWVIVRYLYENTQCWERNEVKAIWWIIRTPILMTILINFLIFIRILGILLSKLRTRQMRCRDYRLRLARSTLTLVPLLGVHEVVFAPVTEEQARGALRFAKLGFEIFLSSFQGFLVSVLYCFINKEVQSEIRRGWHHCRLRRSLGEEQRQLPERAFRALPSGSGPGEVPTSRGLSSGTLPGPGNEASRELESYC

The target in experiment [3] is T3, human amylin-3(a) receptor (human, UniProt P30988 25-474; O60896 24-148).
T3 sequence (looked up) 1: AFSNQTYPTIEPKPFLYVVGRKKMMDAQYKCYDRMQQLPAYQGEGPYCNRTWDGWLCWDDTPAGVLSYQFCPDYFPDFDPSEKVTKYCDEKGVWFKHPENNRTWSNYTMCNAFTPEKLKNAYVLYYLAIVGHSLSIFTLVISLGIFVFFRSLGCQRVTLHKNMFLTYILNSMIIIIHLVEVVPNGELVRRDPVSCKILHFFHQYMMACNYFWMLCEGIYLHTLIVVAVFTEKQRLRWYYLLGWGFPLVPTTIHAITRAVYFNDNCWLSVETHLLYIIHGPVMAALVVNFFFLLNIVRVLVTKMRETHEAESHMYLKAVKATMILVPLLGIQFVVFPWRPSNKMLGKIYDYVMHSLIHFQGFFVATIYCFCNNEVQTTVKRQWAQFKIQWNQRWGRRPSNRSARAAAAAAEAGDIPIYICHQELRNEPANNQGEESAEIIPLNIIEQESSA
T3 sequence (looked up) 2: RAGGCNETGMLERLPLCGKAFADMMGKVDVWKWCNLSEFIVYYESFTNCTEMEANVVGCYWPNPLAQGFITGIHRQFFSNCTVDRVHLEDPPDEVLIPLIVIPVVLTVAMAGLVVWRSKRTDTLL

For experiment [4], the target named is T1, human GLP-1 receptor. This is another data set of the same source.
The target in experiment [5] is T2, human GIP receptor. The source holds these as a separate data set.
Experiment [6] concerns the target T3, human amylin-3(a) receptor. This is another data set of the same source.

Numbered stars: 1 amine (or outer) side, 2 acyl side, 3 side chain; on linkers, the order of the positions; unused ones are H or OH. Square brackets hold non-standard residues; d marks the D form. Side chains are listed from the residue outwards. * marks the point of attachment. C20 diacid = O=C(O)CCCCCCCCCCCCCCCCCCC(=O)*; C18 diacid = O=C(O)CCCCCCCCCCCCCCCCC(=O)*; γGlu = O=C(O)[C@H](CCC(=O)[*:2])N[*:1]; Chem. 28 = not defined here; AEEA = NCCOCCOCC(=O)O; Aib = CC(C)(N)C(=O)O

B1: Compound 111 (peptide)
peptide: Y[Aib]EGTFTSDYSILLEEQAAREFIEWLLAGGPSSGAGQAPGQAPGASHLSTAQTQRLSAELHRLK([AEEA-AEEA-AEEA-γGlu-C18 diacid])TLPRTETGSGSP-NH2
For B1, the “hGLP-1R Potency, no HSA, EC50 [pM]” value with human GLP-1 receptor [1] amounted to 15.9 pM. Also, in the experiment with human GIP receptor [2], the “hGIPR Potency, no HSA, EC50 [pM]” value amounted to 3.66 pM. Also, the “hAMYR3 Potency, no HSA, EC50 [pM]” value in experiment [3] came out at 3.33 pM. Also, in the experiment with human GLP-1 receptor [4], the “hGLP-1R Potency, 1% HSA, EC50 [pM]” value came out at 34.8 pM. Moreover, the “hGIPR Potency, 1% HSA, EC50 [pM]” value with human GIP receptor [5] worked out at 12.2 pM. Moreover, in experiment [6], the “hAMYR3 Potency, 1% HSA, EC50 [pM]” value was 66.4 pM.

B2: Compound 105 (peptide)
peptide: Y[Aib]EGTFTSDYSILLEEQAAREFIEWLLAGGPSSGALQAPGQAPLASHLSTAQTARLSAELHK(Chem. 28)LATLPRTETGSGSP-NH2
modifications: reading uncertain
As to B2, the “hGLP-1R Potency, no HSA, EC50 [pM]” value in the experiment with human GLP-1 receptor [1] is 12.6 pM. In addition, in the experiment with human GIP receptor [2], the “hGIPR Potency, no HSA, EC50 [pM]” value is 3.08 pM. In addition, the “hAMYR3 Potency, no HSA, EC50 [pM]” value in experiment [3] came out at 2.88 pM. The “hGLP-1R Potency, 1% HSA, EC50 [pM]” value with human GLP-1 receptor [4] amounted to 48.9 pM. Besides, in the experiment with human GIP receptor [5], the “hGIPR Potency, 1% HSA, EC50 [pM]” value is 12.5 pM. Besides, the “hAMYR3 Potency, 1% HSA, EC50 [pM]” value in experiment [6] was found to be 113 pM.

B3: Compound 110 (peptide)
peptide: Y[Aib]EGTFTSDYSILLEEQAAREFIEWLLAGGPSSGAPPPSGGGEASHLSTAQTQRLSAK([AEEA-AEEA-γGlu-C20 diacid])LHRLATLPRTETGSGSP-NH2
modifications: not fully specified
For B3, the “hGLP-1R Potency, no HSA, EC50 [pM]” value in the experiment with human GLP-1 receptor [1] was found to be 107 pM. Moreover, in the experiment with human GIP receptor [2], the “hGIPR Potency, no HSA, EC50 [pM]” value came out at 8.01 pM. Further, in experiment [3], the “hAMYR3 Potency, no HSA, EC50 [pM]” value is 3.27 pM. Also, the “hGLP-1R Potency, 1% HSA, EC50 [pM]” value with human GLP-1 receptor [4] worked out at 169 pM. Moreover, in the experiment with human GIP receptor [5], the “hGIPR Potency, 1% HSA, EC50 [pM]” value came to 29.3 pM. Further, in experiment [6], the “hAMYR3 Potency, 1% HSA, EC50 [pM]” value worked out at 94 pM.

B4: Compound 107 (peptide)
peptide: H[Aib]HGTFTSDYSILLEEQAAREFIEWLLAGGPSSGALQAPGQAPGASHLSTAQTARLSAELHRLATLPK(Chem. 28)TETGSGSP-NH2
modifications: reading uncertain
B4: the “hGLP-1R Potency, no HSA, EC50 [pM]” value with human GLP-1 receptor [1] was 4.1 pM. Besides, the “hGIPR Potency, no HSA, EC50 [pM]” value with human GIP receptor [2] worked out at 3.87 pM. Besides, the “hAMYR3 Potency, no HSA, EC50 [pM]” value in experiment [3] came out at 3.07 pM. For the same molecule, the “hGLP-1R Potency, 1% HSA, EC50 [pM]” value in the experiment with human GLP-1 receptor [4] worked out at 13.9 pM. Moreover, in the experiment with human GIP receptor [5], the “hGIPR Potency, 1% HSA, EC50 [pM]” value was 8.76 pM. Besides, the “hAMYR3 Potency, 1% HSA, EC50 [pM]” value in experiment [6] turned out to be 93.1 pM.

B5: Compound 109 (peptide)
peptide: Y[Aib]EGTFTSDYSILLEEQAAREFIEWLLAGGPSSGAPPPSGGGEASHLSTAQTQRLSAK(Chem. 28)LHRLATLPRTETGSGSP-NH2
modifications: not fully specified; reading uncertain
In the case of B5, in the experiment with human GLP-1 receptor [1], the “hGLP-1R Potency, no HSA, EC50 [pM]” value amounted to 68.9 pM. In the experiment with human GIP receptor [2], the “hGIPR Potency, no HSA, EC50 [pM]” value turned out to be 7.42 pM. Moreover, the “hAMYR3 Potency, no HSA, EC50 [pM]” value in experiment [3] turned out to be 3.65 pM. Also, the “hGLP-1R Potency, 1% HSA, EC50 [pM]” value with human GLP-1 receptor [4] is 94.7 pM. Moreover, in the experiment with human GIP receptor [5], the “hGIPR Potency, 1% HSA, EC50 [pM]” value was found to be 17.4 pM. Moreover, in experiment [6], the “hAMYR3 Potency, 1% HSA, EC50 [pM]” value stood at 32 pM.

B6: Compound 103 (peptide)
peptide: H[Aib]HGTFTSDYSILLEEQAAREFIEWLLAGGPSSGAGQAPGQAPGASHLSTAQTARLSAELHK(Chem. 28)LATLPRTETGSGSP-NH2
modifications: reading uncertain
B6: the “hGLP-1R Potency, no HSA, EC50 [pM]” value in the experiment with human GLP-1 receptor [1] came to 5.24 pM. Moreover, the “hGIPR Potency, no HSA, EC50 [pM]” value with human GIP receptor [2] amounted to 3.14 pM. For the same molecule, the “hAMYR3 Potency, no HSA, EC50 [pM]” value in experiment [3] was found to be 2.42 pM. The “hGLP-1R Potency, 1% HSA, EC50 [pM]” value in the experiment with human GLP-1 receptor [4] was 33.1 pM. Also, in the experiment with human GIP receptor [5], the “hGIPR Potency, 1% HSA, EC50 [pM]” value was determined as 13.3 pM. For the same molecule, in experiment [6], the “hAMYR3 Potency, 1% HSA, EC50 [pM]” value is 73.6 pM.

B7: Compound 106 (peptide)
peptide: H[Aib]HGTFTSDYSILLEEQAAREFIEWLLAGGPSSGALQAPGQAPGASHLSTAQTARLSAELHRLK(Chem. 28)TLPRTETGSGSP-NH2
modifications: reading uncertain
Take B7: the “hGLP-1R Potency, no HSA, EC50 [pM]” value with human GLP-1 receptor [1] came to 3.33 pM. The “hGIPR Potency, no HSA, EC50 [pM]” value with human GIP receptor [2] was determined as 4.8 pM. Besides, the “hAMYR3 Potency, no HSA, EC50 [pM]” value in experiment [3] was determined as 2.07 pM. Further, the “hGLP-1R Potency, 1% HSA, EC50 [pM]” value with human GLP-1 receptor [4] is 11.1 pM. In addition, the “hGIPR Potency, 1% HSA, EC50 [pM]” value in the experiment with human GIP receptor [5] was 10.3 pM. The “hAMYR3 Potency, 1% HSA, EC50 [pM]” value in experiment [6] was found to be 31.2 pM.
